Data published in paper doi:10.1101/2022.08.10.503460 (bioRxiv, 2022).

Biological target: Mouse Pcdh15 EC1-2 (mouse, UniProt Q99PJ1 27-259)
Test: AFM force-clamp spectroscopy

B1: Mouse Cdh23 EC1-2 (domain or fragment)
chain: QVNRLPFFTNHFFDTYLLISEDTPVGSSVTQLLARDMDNDPLVFGVSGEEASRFFAVEPDTGVVWLRQPLDRETKSEFTVEFSVSDHQGVITRKVNIQVGDVNDNAPTFHNQPYSVRIPENTPVGTPIFIVNATDPDLGAGGSVLYSFQPPSPFFAIDSARGIVTVIQELDYEVTQAYQLTVNATDQDKTRPLSTLANLAIIITD
koff: 0.2 s⁻¹
